Experimental findings from paper PMC10366545, “Phosphoregulation of DNA repair via the Rad51 auxiliary factor Swi5–Sfr1” (The Journal of Biological Chemistry, 2023) are described below.

Changes are numbered by the printed parent chain.

Sequences and labels used below:
T1: Rad51 (Schizosaccharomyces pombe, UniProt P36601 1-365)
T1 sequence: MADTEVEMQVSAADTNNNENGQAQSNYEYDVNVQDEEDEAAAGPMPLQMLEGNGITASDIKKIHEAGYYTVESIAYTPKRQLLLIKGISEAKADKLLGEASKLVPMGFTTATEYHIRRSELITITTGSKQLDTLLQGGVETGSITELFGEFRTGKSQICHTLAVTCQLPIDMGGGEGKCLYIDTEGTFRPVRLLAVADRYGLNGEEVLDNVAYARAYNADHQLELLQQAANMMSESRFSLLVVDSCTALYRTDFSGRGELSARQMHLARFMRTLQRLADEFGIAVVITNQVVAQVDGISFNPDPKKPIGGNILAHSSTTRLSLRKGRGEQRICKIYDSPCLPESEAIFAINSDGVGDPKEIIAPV

T2: Rad51;Swi5-Sfr1 (S5S1) wild type (Schizosaccharomyces …, UniProt P36601;Q9UUB7;Q9USV1 1-365;1-85;1-299, |)
T2 sequence 1: T1 sequence
T2 sequence 2: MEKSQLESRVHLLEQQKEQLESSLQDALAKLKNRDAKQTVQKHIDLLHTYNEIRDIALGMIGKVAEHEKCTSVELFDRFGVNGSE
T2 sequence 3: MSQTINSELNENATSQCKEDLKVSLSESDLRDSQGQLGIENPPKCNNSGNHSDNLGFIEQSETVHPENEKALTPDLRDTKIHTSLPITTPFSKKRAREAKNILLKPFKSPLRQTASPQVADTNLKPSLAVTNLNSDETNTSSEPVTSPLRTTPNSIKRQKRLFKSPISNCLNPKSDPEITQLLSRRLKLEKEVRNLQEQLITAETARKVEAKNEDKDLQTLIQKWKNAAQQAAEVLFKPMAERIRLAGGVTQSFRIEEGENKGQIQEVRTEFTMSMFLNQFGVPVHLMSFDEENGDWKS

T3: Swi5–Sfr1 nonphosphorylatable mutant complex (S5S1-NON) (S. pombe, UniProt Q9USV1 1-299; Q9UUB7 1-85, S24 to A | T73 to A | S109 to A | S116 to A | S165 to A)
T3 construct: Sfr1, S. pombe, five S/T phosphosites (S24, T73, S109, S116, S165) mutated to A; Swi5, S. pombe; source: E. coli BL21 DE3 (pRARE2), Sfr1 co-expressed with Swi5 from pET11b, purified (His-tag column, HiTrap Q, Superdex 200); not shown: His6, N-terminal, kept
T3 sequence (looked up) 1: T2 sequence 3 with S24A, T73A, S109A, S116A, S165A
T3 sequence (looked up) 2: T2 sequence 2

T4: Swi5–Sfr1 complex (wildtype, hexahistidine-tagged Sfr1) (S. pombe, UniProt Q9USV1 1-299; Q9UUB7 1-85)
T4 construct: Sfr1, S. pombe; Swi5, S. pombe; Made in E. coli, so it serves as the unphosphorylated sample; also called S5S1; wildtype S5S1; source: E. coli BL21 DE3 (pRARE2), Sfr1 co-expressed with Swi5 from pET11b, purified (His-tag column, HiTrap Q, Superdex 200); not shown: His6, N-terminal, kept
T4 sequence (looked up) 1: T2 sequence 3
T4 sequence (looked up) 2: T2 sequence 2

T5: Swi5-Sfr1 (S5S1) wild type (Schizosaccharomyces pombe, UniProt Q9UUB7;Q9USV1 1-85;1-299)
T5 sequence 1: T2 sequence 2
T5 sequence 2: T2 sequence 3

B1: BA494 116-mer ssDNA (ssDNA)
DNA: TTCAATATCTGGTTGAACGGCGTCGCGTCGTAACCCAGCTTGGTAAGTTGGATTAAGCACTCCGTGGACAGATTTGTCATTGTGAGCATTTTCATCCCGAAGTTGCGGCTCATTCT
B2: Swi5–Sfr1 phosphomimetic mutant complex (S5S1-PM) (complex, S. pombe)
chain 1: T2 sequence 3 with S24D, T73D, S109D, S116D, S165D
chain 2: T2 sequence 2
notes: Sfr1, S. pombe, five S/T phosphosites (S24, T73, S109, S116, S165) mutated to D; Swi5, S. pombe; source: E. coli BL21 DE3 (pRARE2), Sfr1 co-expressed with Swi5 from pET11b, purified (His-tag column, HiTrap Q, Superdex 200); not shown: His6, N-terminal, kept
B3: Rad51 (natural protein, S. pombe, UniProt P36601 1-365, looked up)
chain: T1 sequence
notes: Rad51 recombinase, S. pombe; also called S. pombe Rad51; Rad51-ssDNA filament
B4: BA655 100-mer ssDNA (ssDNA)
DNA: ATAAGGCCACGTATTTTGCAAGCTATTTAACTGGCGGCGATTGCGTACCCGACGACCAAAATTAGGGTCAACGCTACCTGTAGGAAGTGTCCGCATAAAG
B5: BA663 80-mer ssDNA (ssDNA)
DNA: TTGATAAGAGGTCATTTTTGCGGATGGCTTAGAGCTTAATTGCTGAATCTGGTGCTGTAGCTCAACATGTTTTAAATATG
B6: BA663/BA664 80-bp dsDNA (dsDNA)
DNA 1: B5 DNA
DNA 2: CATATTTAAAACATGTTGAGCTACAGCACCAGATTCAGCAATTAAGCTCTAAGCCATCCGCAAAAATGACCTCTTATCAA

Series [1] has as its target T1, Rad51. In words: negative-stain EM; 2 mM ATP, 5 mM Mg2+; EMSA: 25 mM Hepes-KOH pH 7.5, 100 mM KCl, 3.5 mM MgCl2, 0.5 mM TCEP, 5% glycerol, 20 nM DNA, 37 C 15 min, 0.8% agarose in TAE at 4 C; pull-down: 25 mM Tris-Cl pH 7.5, 100 mM NaCl, 2 mM ATP, 5 mM MgCl2, 37 C. The note with it: protein: recombinant. A general note: A gel shift assay detects complexes by their altered migration in electrophoresis.

Series [2] deals with T2, Rad51;Swi5-Sfr1 (S5S1) wild type. In words: negative-stain EM; 2 mM ATP, 5 mM Mg2+; longer filaments; EMSA: 25 mM Hepes-KOH pH 7.5, 100 mM KCl, 3.5 mM MgCl2, 0.5 mM TCEP, 5% glycerol, 20 nM DNA, 37 C 15 min, 0.8% agarose in TAE at 4 C; pull-down: 25 mM Tris-Cl pH 7.5, 100 mM NaCl, 2 mM ATP, 5 mM MgCl2, 37 C. The note with it: protein: recombinant;recombinant; tags: ;N-terminal His6 on Sfr1.

Series [3] addresses B3. The series can be described thus: pull-down; filament binding assay: Rad51 (3.33 μM) filaments on circular ssDNA (10 μMnt) held on streptavidin beads through a biotinylated oligonucleotide; 3.33 μM S5S1 added, 5 min 37 °C; 25 mM Tris-Cl 7.5, 100 mM NaCl, 3.5 mM MgCl2, 2 mM ATP, 0.5 mM TCEP, 5% glycerol, 0.05% Tween-20; Sfr1 signal normalised to Rad51, relative to wildtype, n = 3. The note with it: both partners purified.

Series [4] has as its target T3, Swi5–Sfr1 nonphosphorylatable mutant …. The series can be described thus: pull-down; in solution; nickel resin holds hexahistidine-tagged S5S1; 500 nM each protein; 30 mM Tris-Cl 7.5, 100 mM KCl, 5 mM MgCl2, 1 mM ATP, 0.25 mM TCEP, 5% glycerol, 0.05% Tween-20; 30 °C 15 min, then resin 1 h at 4 °C; SDS-PAGE, Coomassie. The conditions noted are these: both partners purified.

Series [5] deals with T4, Swi5–Sfr1 complex (wildtype, …). Described as above. The note with it: both partners purified.
The target in series [6] is T2, Rad51;Swi5-Sfr1 (S5S1) wild type. The series can be described thus: streptavidin pull-down; ATP, Mg2+, Fbh1-Skp1; S5S1 antagonizes disruption; EMSA: 25 mM Hepes-KOH pH 7.5, 100 mM KCl, 3.5 mM MgCl2, 0.5 mM TCEP, 5% glycerol, 20 nM DNA, 37 C 15 min, 0.8% agarose in TAE at 4 C; pull-down: 25 mM Tris-Cl pH 7.5, 100 mM NaCl, 2 mM ATP, 5 mM MgCl2, 37 C. The note with it: protein: recombinant;recombinant; tags: ;N-terminal His6 on Sfr1; label: 5' biotin.

In series [7] the target is T1, Rad51. The series can be described thus: streptavidin pull-down; 2 mM ATP, 5 mM Mg2+; EMSA: 25 mM Hepes-KOH pH 7.5, 100 mM KCl, 3.5 mM MgCl2, 0.5 mM TCEP, 5% glycerol, 20 nM DNA, 37 C 15 min, 0.8% agarose in TAE at 4 C; pull-down: 25 mM Tris-Cl pH 7.5, 100 mM NaCl, 2 mM ATP, 5 mM MgCl2, 37 C. The conditions noted are these: protein: recombinant; label: 5' biotin.
The target of series [8] is T5, Swi5-Sfr1 (S5S1) wild type. The series can be described thus: EMSA; 3.5 mM Mg2+; EMSA: 25 mM Hepes-KOH pH 7.5, 100 mM KCl, 3.5 mM MgCl2, 0.5 mM TCEP, 5% glycerol, 20 nM DNA, 37 C 15 min, 0.8% agarose in TAE at 4 C; pull-down: 25 mM Tris-Cl pH 7.5, 100 mM NaCl, 2 mM ATP, 5 mM MgCl2, 37 C. The conditions noted are these: protein: recombinant, tags: N-terminal His6 on Sfr1, copies: 1;1.

For the molecule B1, the binding result (with Rad51 [1]; in series [2]) was “binds” each time. Regarding B2, the “fold reduction in coprecipitation with Rad51 filaments against wildtype S5S1” value with Rad51 [3] is about 5 fold. Take B3: the binding result in series [4] and in series [5] was “binds” in each case. Take B4: the binding result (in series [6]; with Rad51 [7]) was “binds” in each case. In the case of B5, the binding result in series [8] (label: 3' Cy5) is given as “binds”. Turning to B6, the binding result in series [8] (label: 3' Cy5 on BA663, blunt) is given as “binds”.
